{
  "source": "patent US20260184809A1",
  "about": "(Genmab, published 2026)",
  "binders": {"B1": {"name": "IgG1-EpCAM-A37-FEAR (antibody)", "heavy": "not shown", "light": "EIELTQSPGTLSLSPGERATLSCRASQTISNNYLAWYQQKRGQAPRLLIYAASSRATGIPDRFSGTGSGTDFTLTISRLEPEDFAVYYCAQGELYPRQFGGGTKLEIKRTVAAPSVFIFPPSDEQLKSGTASVVCLLNNFYPREAKVQWKVDNALQSGNSQESVTEQDSKDSTYSLSSTLTLSKADYEKHKVYACEVTHQGLSSPVTKSFNRGEC"}, "B2": {"name": "IgG1-EpCAM-C52-FEAR (antibody, V domains shown)", "VH": "QVQLVQSGAEVKKPGASVKVSCKASGGTFSSYAISWVRQAPGQGLEWMGGIVPIFGTANYAQKFQGRVTITADESTSTAYMELSSLRSEDTAVYYCARDPFLHYWGQGTLVTVSS", "VL": "EIELTQSPGTLSLSPGERATLSCRASQSVSSSYLAWYQQKPGQAPRLLIYGASSRATGIPDRFSGSGSGTDFTLTISRLEPEDFAVYYCAQGELYPRQFGGGTKLDIKR"}, "B3": {"name": "IgG1-EpCAM-UBS-54-FEAR (antibody, V domains shown)", "VH": "B2 VH with A16S, K19R, V52I", "VL": "not shown"}, "B4": {"name": "IgG1-EpCAM-323-A3-FEAR (antibody)", "heavy": "QIQLVQSGPELKKPGETVKISCKASGYTFTNYGMNWVRQASGEGLKWMGWINTYTGEPTYGEDFKGRFAFSLETSASTAYLQINNLKNEDTATYFCARFGNYVDYWGQGTTLTVSSASTKGPSVFPLAPSSKSTSGGTAALGCLVKDYFPEPVTVSWNSGALTSGVHTFPAVLQSSGLYSLSSVVTVPSSSLGTQTYICNVNHKPSNTKVDKRVEPKSCDKTHTCPPCPAPEFEGGPSVFLFPPKPKDTLMISRTPEVTCVVVAVSHEDPEVKFNWYVDGVEVHNAKTKPREEQYNSTYRVVSVLTVLHQDWLNGKEYKCKVSNKALPAPIEKTISKAKGQPREPQVYTLPPSREEMTKNQVSLTCLVKGFYPSDIAVEWESNGQPENNYKTTPPVLDSDGSFFLYSRLTVDKSRWQQGNVFSCSVMHEALHNHYTQKSLSLSPG", "light": "DIVMTQAAFSNPVTLGTSASISCRSSKNLLHSNGITYLYWYLQKPGQSPHLLIYQMSNLASGVPDRFSSSGSGTDFTLRISRVEAEDVGVYYCAQNLEIPRTFGGGTKLEIKRTVAAPSVFIFPPSDEQLKSGTASVVCLLNNFYPREAKVQWKVDNALQSGNSQESVTEQDSKDSTYSLSSTLTLSKADYEKHKVYACEVTHQGLSSPVTKSFNRGEC", "notes": "also called IgG1-323-A3-FEAR"}, "B5": {"name": "bsIgG1-b12-FEAL/EpCAM-323-A3-FEAR (bispecific antibody)", "heavy 1": "QVQLVQSGAEVKKPGASVKVSCQASGYRFSNFVIHWVRQAPGQRFEWMGWINPYNGNKEFSAKFQDRVTFTADTSANTAYMELRSLRSADTAVYYCARVGPYSWDDSPQDNYYMDVWGKGTTVIVSSASTKGPSVFPLAPSSKSTSGGTAALGCLVKDYFPEPVTVSWNSGALTSGVHTFPAVLQSSGLYSLSSVVTVPSSSLGTQTYICNVNHKPSNTKVDKRVEPKSCDKTHTCPPCPAPEFEGGPSVFLFPPKPKDTLMISRTPEVTCVVVAVSHEDPEVKFNWYVDGVEVHNAKTKPREEQYNSTYRVVSVLTVLHQDWLNGKEYKCKVSNKALPAPIEKTISKAKGQPREPQVYTLPPSREEMTKNQVSLTCLVKGFYPSDIAVEWESNGQPENNYKTTPPVLDSDGSFLLYSKLTVDKSRWQQGNVFSCSVMHEALHNHYTQKSLSLSPG", "light 1": "EIVLTQSPGTLSLSPGERATFSCRSSHSIRSRRVAWYQHKPGQAPRLVIHGVSNRASGISDRFSGSGSGTDFTLTITRVEPEDFALYYCQVYGASSYTFGQGTKLERKRTVAAPSVFIFPPSDEQLKSGTASVVCLLNNFYPREAKVQWKVDNALQSGNSQESVTEQDSKDSTYSLSSTLTLSKADYEKHKVYACEVTHQGLSSPVTKSFNRGEC", "heavy 2": "B4 heavy", "light 2": "B4 light"}},
  "key": {"[1]": {"molecular_target": "T1, mouse EpCAM, full length, on transfected CHO-S cells (mouse, UniProt Q99JW5 24-315)", "T1 sequence": "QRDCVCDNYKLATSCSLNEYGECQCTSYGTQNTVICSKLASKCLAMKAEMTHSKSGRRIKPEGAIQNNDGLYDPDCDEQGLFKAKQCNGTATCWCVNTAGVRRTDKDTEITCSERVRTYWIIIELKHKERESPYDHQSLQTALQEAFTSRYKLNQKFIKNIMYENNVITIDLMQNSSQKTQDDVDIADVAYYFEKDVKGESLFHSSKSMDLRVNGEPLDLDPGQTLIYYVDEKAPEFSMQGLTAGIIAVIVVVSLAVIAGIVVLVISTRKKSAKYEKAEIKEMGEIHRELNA", "assay": "flow cytometry on CHO-S cells transiently transfected with full length mouse EpCAM, PE anti-human IgG F(ab')2", "method": "(§1) Binding of EpCAM antibodies to CHO-S cells transiently transfected with full length human, cynomolgus monkey or mouse EpCAM was analyzed by flow cytometry. […] Cells were washed twice in FACS buffer, re-suspended in 20 μL FACS buffer supplemented with TO-PRO™-3 Iodide (diluted 1:20000; Invitrogen, cat. no. T3605) and analyzed on an iQue screener (Intellicyt Corporation, USA). Binding curves were analyzed by non-linear regression (sigmoidal dose-response with variable slope) using GraphPad Prism V8.4.1 software (GraphPad Software, San Diego, CA, USA)."}, "[2]": {"molecular_target": "T2, human EpCAM, full length, on cells (human, UniProt P16422 24-314)", "T2 construct": "also called hEpCAM; EpCAM on DiFi, HPAF-II, A549, OV-90-SC12 and MDA-MB-231_hCLDN6_hEpCAM cells", "T2 sequence": "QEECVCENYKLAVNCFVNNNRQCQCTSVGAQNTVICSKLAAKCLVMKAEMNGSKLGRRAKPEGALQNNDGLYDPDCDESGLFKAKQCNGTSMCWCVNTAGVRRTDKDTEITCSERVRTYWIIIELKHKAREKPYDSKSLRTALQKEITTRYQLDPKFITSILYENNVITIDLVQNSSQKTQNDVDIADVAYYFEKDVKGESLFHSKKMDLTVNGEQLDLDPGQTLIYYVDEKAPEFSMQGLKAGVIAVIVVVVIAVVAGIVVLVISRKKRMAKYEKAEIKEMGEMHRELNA", "assay": "flow cytometry on HPAF-II cells, PE anti-human IgG F(ab')2", "method": "(§2) Binding to the EpCAM-expressing human tumor cell lines DiFi, HPAF-II and A549 by bivalent EpCAM antibodies or bispecific antibodies carrying one EpCAM-binding arm was analyzed by flow cytometry. […] Next, cells were washed once (A-D) or twice (E) in FACS buffer, re-suspended in 100 μL FACS buffer and analyzed on a BD LSRFortessa FACS (BD Biosciences, USA), Celesta (BD Biosciences, USA) or iQue (Sartorius, Germany). Binding curves were analyzed using non-linear regression (sigmoidal dose-response with variable slope) using GraphPad Prism V7.02 software (GraphPad Software, San Diego, CA, USA)."}, "[3]": {"molecular_target": "T2, human EpCAM, full length, on cells", "assay": "flow cytometry on DiFi cells, PE anti-human IgG F(ab')2", "method": "as §2"}, "[4]": {"molecular_target": "T2, human EpCAM, full length, on cells", "assay": "flow cytometry on CHO-S cells transiently transfected with full length human EpCAM, PE anti-human IgG F(ab')2", "method": "as §1"}, "[5]": {"molecular_target": "T2, human EpCAM, full length, on cells", "assay": "flow cytometry on A549 cells, PE anti-human IgG F(ab')2", "method": "as §2"}, "[6]": {"molecular_target": "T2, human EpCAM, full length, on cells", "assay": "flow cytometry on DiFi cells, PE anti-human IgG F(ab')2", "remark": "listed apart in the source", "method": "as §2"}, "[7]": {"molecular_target": "T2, human EpCAM, full length, on cells", "assay": "flow cytometry on HPAF-II cells, PE anti-human IgG F(ab')2", "remark": "listed apart in the source", "method": "as §2"}, "[8]": {"molecular_target": "T2, human EpCAM, full length, on cells", "assay": "flow cytometry on DiFi cells, PE anti-human IgG F(ab')2", "remark": "listed apart in the source", "method": "as §2"}, "[9]": {"molecular_target": "T2, human EpCAM, full length, on cells", "assay": "flow cytometry on HPAF-II cells, PE anti-human IgG F(ab')2", "remark": "listed apart in the source", "method": "as §2"}, "[10]": {"molecular_target": "T2, human EpCAM, full length, on cells", "assay": "flow cytometry on HPAF-II cells, PE anti-human IgG F(ab')2", "remark": "listed apart in the source", "method": "as §2"}, "[11]": {"molecular_target": "T2, human EpCAM, full length, on cells", "assay": "flow cytometry on DiFi cells, PE anti-human IgG F(ab')2", "remark": "listed apart in the source", "method": "as §2"}, "[12]": {"molecular_target": "T1, mouse EpCAM, full length, on …", "assay": "flow cytometry on CHO-S cells transiently transfected with full length mouse EpCAM, PE anti-human IgG F(ab')2", "remark": "listed apart in the source", "method": "as §1"}, "[13]": {"molecular_target": "T2, human EpCAM, full length, on cells", "assay": "flow cytometry on CHO-S cells transiently transfected with full length human EpCAM, PE anti-human IgG F(ab')2", "remark": "listed apart in the source", "method": "as §1"}},
  "note": "Substitutions are numbered along the chain they refer to. Read-outs that look alike come from different tables or passages of the source.",
  "data": [
    {"binder": "B1", "values": [
      {"measurement": "EC50 (read off the curve)", "setting": "[1]", "result": "~0.01", "unit": "µg/mL"},
      {"measurement": "EC50 (read off the curve)", "setting": "[2]", "result": "~0.1", "unit": "µg/mL"},
      {"measurement": "EC50 (read off the curve)", "setting": "[3]", "result": "~0.5", "unit": "µg/mL"},
      {"measurement": "EC50 (read off the curve)", "setting": "[4]", "result": "~0.03", "unit": "µg/mL"},
      {"measurement": "EC50 (read off the curve)", "setting": "[5]", "result": "~0.2", "unit": "µg/mL"}
    ]},
    {"binder": "B2", "values": [
      {"measurement": "EC50 (read off the curve)", "setting": "[6]", "result": "~0.3", "unit": "µg/mL"},
      {"measurement": "EC50 (read off the curve)", "setting": "[7]", "result": "~0.07", "unit": "µg/mL"}
    ]},
    {"binder": "B3", "values": [
      {"measurement": "EC50 (read off the curve)", "setting": "[8]", "result": "~0.4", "unit": "µg/mL"},
      {"measurement": "EC50 (read off the curve)", "setting": "[9]", "result": "~0.2", "unit": "µg/mL"},
      {"measurement": "EC50 (read off the curve)", "setting": "[4]", "result": "~0.04", "unit": "µg/mL"}
    ]},
    {"binder": "B4", "values": [
      {"measurement": "EC50 (read off the curve)", "setting": "[10]", "result": "~0.02", "unit": "µg/mL"},
      {"measurement": "EC50 (read off the curve)", "setting": "[11]", "result": "~0.08", "unit": "µg/mL"}
    ]},
    {"binder": "B5", "values": [
      {"measurement": "EC50 (read off the curve)", "setting": "[12]", "result": "~0.05", "unit": "µg/mL"},
      {"measurement": "EC50 (read off the curve)", "setting": "[13]", "result": "~0.1", "unit": "µg/mL"}
    ]}
  ]
}
